Target: WDR5 (WD (Trp-Asp) repeat domain 5) (UniProt P61964)
Assay: fluorescence polarisation

| Substance | IC50 | Ki |
| --- | --- | --- |
| ARS (peptide) | 1.8 µM |  |
| VRA (peptide) | 0.24 µM | 0.05 µM |
| ARC (peptide) |  | 0.02 µM |
| ARL (peptide) | 34 µM | 7.3 µM |
| AKA (peptide) | > 300 µM | > 65 µM |
| CRA (peptide) | 1.83 µM | 0.4 µM |
| ARF (peptide) | 280 µM |  |
| FRA (peptide) | 3.1 µM |  |
| GRA (peptide) | 77.4 µM | 16.7 µM |
| TRA (peptide) | 2.9 µM |  |
| ARE (peptide) | > 100 µM |  |
| ARV (peptide) | 0.11 µM | 0.02 µM |

Results, then the substance that gave them:

| IC50 | Ki | Substance |
| --- | --- | --- |
| 10.3 µM | 2.2 µM | ARG (peptide) |
| 0.08 µM |  | ART (peptide) |
| 2.9 µM |  | SRA (peptide) |
| 0.54 µM | 0.12 µM | Ac-ARA-NH2 (peptide) |
| 10.8 µM | 2.3 µM | LRA (peptide) |
| 1.7 µM |  | HRA (peptide) |
